Source: patent US20220403048A1, “BINDING MOLECULES TO ARGINASE II [ARG2]” (Cancer Research Technology Limited, priority 2019, published 2022)

Experiments:
ARG2 [1] = biological target: T1, ARG2 (Homo sapiens, UniProt P78540); assay: T cell proliferation assay (BrdU, 96 hours) with exogenous ARG2, improved variant IgGs; type: cell-based; set-up: human ARG2 (aa23-354); His10 (C); made in house; host or cells: E. coli BL21 (DE3); details: In Presence of rhARG2; hIgG1; top conc 2 μM; n=2
T1 sequence (P78540 23-354): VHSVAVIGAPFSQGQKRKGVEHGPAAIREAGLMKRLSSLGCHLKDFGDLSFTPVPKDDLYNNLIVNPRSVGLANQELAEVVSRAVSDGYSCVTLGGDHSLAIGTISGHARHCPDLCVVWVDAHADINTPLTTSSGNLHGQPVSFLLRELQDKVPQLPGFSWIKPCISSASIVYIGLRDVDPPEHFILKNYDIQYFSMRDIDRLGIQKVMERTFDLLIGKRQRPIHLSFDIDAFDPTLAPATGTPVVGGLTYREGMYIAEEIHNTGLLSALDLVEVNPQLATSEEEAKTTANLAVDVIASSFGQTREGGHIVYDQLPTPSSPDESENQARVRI
Experimental: This assay served to provide evidence of improved functional efficacy for each affinity-matured antibody in comparison to the parent IgG, C0020187 (FIG. 12).
Lead optimisation clones were tested to an endpoint treatment time of 96 hours and the BrdU Cell Proliferation Kit (Roche, France; Cat: 11647229001) was used according to the manufacturer's instructions. R347 was used as the irrelevant control. All clones tested n=2.
(§1) Leukocyte cones underwent Ficoll Plaque (GE, Sweden; Cat: 17-1440-02) gradient separation, PBMC's were extracted and pan T cell population isolated by negative selection using the Human T Cell Enrichment Kit (Stemcell Technologies, France; Cat: 19051) according to the manufacturer's instructions.
40000 cells/well were seeded in complete growth media (RMPI 1640, 5% Human Serum Albumin) into a 96 well clear TC treated microplate (Greiner-Bio One, Germany; Cat: 655180). T cells were activated by the addition of ImmunoCult CD3/CD28 (Stemcell Technologies, France; Cat: 10971) at a dilution of 1:40 directly into wells and the plate incubated 37° C., 5% CO2 for 45 minutes. […]
(§2) Calculated data was expressed as % of control (Equation 3) and graphical plots were constructed using a four parameter fit and EC50's determined using model 205 in XLFit (IDBS, UK). […]

ARG2 [2] = biological target: T1, ARG2; assay: T cell proliferation assay (BrdU, 72 hours) with exogenous ARG2; type: cell-based; details: In Absence of rhARG2
Experimental: This assay served to provide in vitro evidence of functional efficacy for each antibody.
as §1, with “Briefly, Leukocyte” for “Leukocyte”, “cones (NHS Blood and Transplant, Watford, UK)” for “cones”
40000 cells/well were seeded in complete growth media (RMPI 1640, 5% Human Serum Albumin) into a 96 well clear TC treated microplate (Greiner-Bio One, Germany; Cat: 655180). T Cells were activated by the addition of ImmunoCult CD3/CD28 (Stemcell Technologies, France; Cat: 10971) at a dilution of 1:40 directly into wells and the plate incubated 37° C., 5% CO2 for 45 minutes.
To determine EC50's of test antibodies, a dilution series was created in sterile TBS at 8× the final assay concentration was added to the assay plate containing cells. Plate was incubated for 30 minutes at 37° C., 5% CO2.
ARG2 was added to relevant wells of the plate at a final concentration of 15 μg/ml. The equivalent volume of ARG2 vehicle and test antibody vehicle was added to relevant control wells. […]
as §2

B1: C0021158: anti-ARG2 antibody, second generation lead, VH SEQ ID NO: 272, VL SEQ ID NO: 277 (antibody, listed as Homo sapiens, V domains shown)
VH: EVQLLESGGGLVQPGGSLRLSCAASGFTFRYEVAAWVRQAPGKGLEWVSAISGPIPKGYYADSVKGRFTISRDNSKNTLYLQMNSLRAEDTAVYYCARLRADLGLYMDLWGRGTLVTVPS
VL: QSVLTQPPSVSAAPGQKVTISCSGSSSNIGNHYVSWYQQLPGTAPKLLIYDNSERTAGVPDRFSGSKSGTSATLGITGLQTGDEADYYCGTWDELTSNLVFGGGTKLTVL
modifications: C0021158
ARG2 [1]
  EC50: 157 nM
  Maximum % Proliferation: 90%

B2: C0020065: anti-ARG2 antibody, alternate lead isolation clone, VH SEQ ID NO: 2, VL SEQ ID NO: 7 (antibody, listed as Homo sapiens, V domains shown)
VH: GVNLRESGGGVVQPGRSLRLSCAASGFTFSSYAMHWVRQAPGKGLEWVAVISYDGSNKYYVDSVKGRFTISRDNSKNTLYLQMNSLRAEDTAVYYCARDSSQLWFDYWGRGTLVTVSS
VL: QSVVTQPPSVSGAPGQRVTISCTGSSSNIGTGYDVHWYQQLPGTAPKLLIYGNSNRPSGVPDRFSGSKSGTSASLAITGLQAEDEADYYCQSYDSSLSGSVVFGGGTQLTVL
modifications: C0020065
ARG2 [2]
  EC50: < 0.8 nM
  Maximum % Proliferation: 82%
